Non-standard residues stand in square brackets, D forms with d. No end group written: not given here. *: point of attachment. C16 diacid = O=C(O)CCCCCCCCCCCCCCC(=O)*; Nle = CCCC[C@H](N)C(=O)O; Aib = CC(C)(N)C(=O)O
T1: human GIP receptor (human, UniProt P48546 22-466)
T1 sequence (looked up): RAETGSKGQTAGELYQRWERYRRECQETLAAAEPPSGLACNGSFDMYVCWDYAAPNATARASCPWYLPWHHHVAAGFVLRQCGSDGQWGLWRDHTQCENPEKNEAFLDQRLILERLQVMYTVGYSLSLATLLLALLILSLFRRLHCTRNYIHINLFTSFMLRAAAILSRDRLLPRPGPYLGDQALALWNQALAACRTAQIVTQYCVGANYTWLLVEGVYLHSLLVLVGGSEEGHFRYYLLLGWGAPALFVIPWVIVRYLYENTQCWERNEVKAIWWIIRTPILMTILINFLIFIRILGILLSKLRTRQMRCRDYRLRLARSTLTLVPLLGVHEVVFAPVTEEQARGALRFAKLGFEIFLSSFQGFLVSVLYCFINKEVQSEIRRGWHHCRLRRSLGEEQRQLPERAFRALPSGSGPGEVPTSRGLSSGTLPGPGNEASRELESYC

B1: AT614 (peptide)
peptide: EGTFISEYSIAMEKIK(C16 diacid)QQEFVEWLLAQKPSSGAPPPS-OH
modifications: N-terminus assumed
SMILES: CC[C@H](C)[C@H](NC(=O)[C@H](CO)NC(=O)[C@H](Cc1ccc(O)cc1)NC(=O)[C@H](CCC(=O)O)NC(=O)[C@H](CO)NC(=O)[C@@H](NC(=O)[C@H](Cc1ccccc1)NC(=O)[C@@H](NC(=O)CNC(=O)[C@@H](N)CCC(=O)O)[C@@H](C)O)[C@@H](C)CC)C(=O)N[C@@H](C)C(=O)N[C@@H](CCSC)C(=O)N[C@@H](CCC(=O)O)C(=O)N[C@@H](CCCCN)C(=O)N[C@H](C(=O)N[C@@H](CCCCNC(=O)CCCCCCCCCCCCCCC(=O)O)C(=O)N[C@@H](CCC(N)=O)C(=O)N[C@@H](CCC(N)=O)C(=O)N[C@@H](CCC(=O)O)C(=O)N[C@@H](Cc1ccccc1)C(=O)N[C@H](C(=O)N[C@@H](CCC(=O)O)C(=O)N[C@@H](Cc1c[nH]c2ccccc12)C(=O)N[C@@H](CC(C)C)C(=O)N[C@@H](CC(C)C)C(=O)N[C@@H](C)C(=O)N[C@@H](CCC(N)=O)C(=O)N[C@@H](CCCCN)C(=O)N1CCC[C@H]1C(=O)N[C@@H](CO)C(=O)N[C@@H](CO)C(=O)NCC(=O)N[C@@H](C)C(=O)N1CCC[C@H]1C(=O)N1CCC[C@H]1C(=O)N1CCC[C@H]1C(=O)N[C@@H](CO)C(=O)O)C(C)C)[C@@H](C)CC
B2: AT616 (peptide)
peptide: EGTFISEYSI[Aib]MEKIK(C16 diacid)QQDFVEWLLAQKPSSGAPPPS-OH
modifications: N-terminus assumed
SMILES: CC[C@H](C)[C@H](NC(=O)[C@H](CCCCN)NC(=O)[C@H](CCC(=O)O)NC(=O)[C@H](CCSC)NC(=O)C(C)(C)NC(=O)[C@@H](NC(=O)[C@H](CO)NC(=O)[C@H](Cc1ccc(O)cc1)NC(=O)[C@H](CCC(=O)O)NC(=O)[C@H](CO)NC(=O)[C@@H](NC(=O)[C@H](Cc1ccccc1)NC(=O)[C@@H](NC(=O)CNC(=O)[C@@H](N)CCC(=O)O)[C@@H](C)O)[C@@H](C)CC)[C@@H](C)CC)C(=O)N[C@@H](CCCCNC(=O)CCCCCCCCCCCCCCC(=O)O)C(=O)N[C@@H](CCC(N)=O)C(=O)N[C@@H](CCC(N)=O)C(=O)N[C@@H](CC(=O)O)C(=O)N[C@@H](Cc1ccccc1)C(=O)N[C@H](C(=O)N[C@@H](CCC(=O)O)C(=O)N[C@@H](Cc1c[nH]c2ccccc12)C(=O)N[C@@H](CC(C)C)C(=O)N[C@@H](CC(C)C)C(=O)N[C@@H](C)C(=O)N[C@@H](CCC(N)=O)C(=O)N[C@@H](CCCCN)C(=O)N1CCC[C@H]1C(=O)N[C@@H](CO)C(=O)N[C@@H](CO)C(=O)NCC(=O)N[C@@H](C)C(=O)N1CCC[C@H]1C(=O)N1CCC[C@H]1C(=O)N1CCC[C@H]1C(=O)N[C@@H](CO)C(=O)O)C(C)C
B3: AT623 (peptide)
peptide: EGTFISDYSIAMDKIK(C16 diacid)QQDFVEWLLAQAPSSGAPPPS-OH
modifications: N-terminus assumed
SMILES: CC[C@H](C)[C@H](NC(=O)[C@H](CO)NC(=O)[C@H](Cc1ccc(O)cc1)NC(=O)[C@H](CC(=O)O)NC(=O)[C@H](CO)NC(=O)[C@@H](NC(=O)[C@H](Cc1ccccc1)NC(=O)[C@@H](NC(=O)CNC(=O)[C@@H](N)CCC(=O)O)[C@@H](C)O)[C@@H](C)CC)C(=O)N[C@@H](C)C(=O)N[C@@H](CCSC)C(=O)N[C@@H](CC(=O)O)C(=O)N[C@@H](CCCCN)C(=O)N[C@H](C(=O)N[C@@H](CCCCNC(=O)CCCCCCCCCCCCCCC(=O)O)C(=O)N[C@@H](CCC(N)=O)C(=O)N[C@@H](CCC(N)=O)C(=O)N[C@@H](CC(=O)O)C(=O)N[C@@H](Cc1ccccc1)C(=O)N[C@H](C(=O)N[C@@H](CCC(=O)O)C(=O)N[C@@H](Cc1c[nH]c2ccccc12)C(=O)N[C@@H](CC(C)C)C(=O)N[C@@H](CC(C)C)C(=O)N[C@@H](C)C(=O)N[C@@H](CCC(N)=O)C(=O)N[C@@H](C)C(=O)N1CCC[C@H]1C(=O)N[C@@H](CO)C(=O)N[C@@H](CO)C(=O)NCC(=O)N[C@@H](C)C(=O)N1CCC[C@H]1C(=O)N1CCC[C@H]1C(=O)N1CCC[C@H]1C(=O)N[C@@H](CO)C(=O)O)C(C)C)[C@@H](C)CC
B4: AT666 (peptide)
peptide: EGTFISDYSI[Aib]LDKIK(C16 diacid)QQDFVEWLLAQKPSSGAPPPS-OH
B5: AT617 (peptide)
peptide: EGTFISDYSIAMDKIK(C16 diacid)QQDFVEWLLAQKPSSGAPPPS-OH
modifications: N-terminus assumed
SMILES: CC[C@H](C)[C@H](NC(=O)[C@H](CO)NC(=O)[C@H](Cc1ccc(O)cc1)NC(=O)[C@H](CC(=O)O)NC(=O)[C@H](CO)NC(=O)[C@@H](NC(=O)[C@H](Cc1ccccc1)NC(=O)[C@@H](NC(=O)CNC(=O)[C@@H](N)CCC(=O)O)[C@@H](C)O)[C@@H](C)CC)C(=O)N[C@@H](C)C(=O)N[C@@H](CCSC)C(=O)N[C@@H](CC(=O)O)C(=O)N[C@@H](CCCCN)C(=O)N[C@H](C(=O)N[C@@H](CCCCNC(=O)CCCCCCCCCCCCCCC(=O)O)C(=O)N[C@@H](CCC(N)=O)C(=O)N[C@@H](CCC(N)=O)C(=O)N[C@@H](CC(=O)O)C(=O)N[C@@H](Cc1ccccc1)C(=O)N[C@H](C(=O)N[C@@H](CCC(=O)O)C(=O)N[C@@H](Cc1c[nH]c2ccccc12)C(=O)N[C@@H](CC(C)C)C(=O)N[C@@H](CC(C)C)C(=O)N[C@@H](C)C(=O)N[C@@H](CCC(N)=O)C(=O)N[C@@H](CCCCN)C(=O)N1CCC[C@H]1C(=O)N[C@@H](CO)C(=O)N[C@@H](CO)C(=O)NCC(=O)N[C@@H](C)C(=O)N1CCC[C@H]1C(=O)N1CCC[C@H]1C(=O)N1CCC[C@H]1C(=O)N[C@@H](CO)C(=O)O)C(C)C)[C@@H](C)CC
B6: AT667 (peptide)
peptide: EGTFISDYSI[Aib][Nle]DKIK(C16 diacid)QQDFVEWLLAQKPSSGAPPPS-OH
B7: AT668 (peptide)
peptide: EGTFISDYSIALDKIK(C16 diacid)QQDFVEWLLAQKPSSGAPPPS-OH
modifications: N-terminus assumed
SMILES: CC[C@H](C)[C@H](NC(=O)[C@H](CO)NC(=O)[C@H](Cc1ccc(O)cc1)NC(=O)[C@H](CC(=O)O)NC(=O)[C@H](CO)NC(=O)[C@@H](NC(=O)[C@H](Cc1ccccc1)NC(=O)[C@@H](NC(=O)CNC(=O)[C@@H](N)CCC(=O)O)[C@@H](C)O)[C@@H](C)CC)C(=O)N[C@@H](C)C(=O)N[C@@H](CC(C)C)C(=O)N[C@@H](CC(=O)O)C(=O)N[C@@H](CCCCN)C(=O)N[C@H](C(=O)N[C@@H](CCCCNC(=O)CCCCCCCCCCCCCCC(=O)O)C(=O)N[C@@H](CCC(N)=O)C(=O)N[C@@H](CCC(N)=O)C(=O)N[C@@H](CC(=O)O)C(=O)N[C@@H](Cc1ccccc1)C(=O)N[C@H](C(=O)N[C@@H](CCC(=O)O)C(=O)N[C@@H](Cc1c[nH]c2ccccc12)C(=O)N[C@@H](CC(C)C)C(=O)N[C@@H](CC(C)C)C(=O)N[C@@H](C)C(=O)N[C@@H](CCC(N)=O)C(=O)N[C@@H](CCCCN)C(=O)N1CCC[C@H]1C(=O)N[C@@H](CO)C(=O)N[C@@H](CO)C(=O)NCC(=O)N[C@@H](C)C(=O)N1CCC[C@H]1C(=O)N1CCC[C@H]1C(=O)N1CCC[C@H]1C(=O)N[C@@H](CO)C(=O)O)C(C)C)[C@@H](C)CC
B8: AT665 (peptide)
peptide: EGTFISDYSI[Aib]MDKIK(C16 diacid)QQDFVEWLLAQKPSSGAPPPS-OH
B9: AT673 (peptide)
peptide: EGTFISEYSI[Aib]LEKIK(C16 diacid)QQEFVEWLLAQKPSSGAPPPS-OH
modifications: N-terminus assumed
SMILES: CC[C@H](C)[C@H](NC(=O)[C@H](CCCCN)NC(=O)[C@H](CCC(=O)O)NC(=O)[C@H](CC(C)C)NC(=O)C(C)(C)NC(=O)[C@@H](NC(=O)[C@H](CO)NC(=O)[C@H](Cc1ccc(O)cc1)NC(=O)[C@H](CCC(=O)O)NC(=O)[C@H](CO)NC(=O)[C@@H](NC(=O)[C@H](Cc1ccccc1)NC(=O)[C@@H](NC(=O)CNC(=O)[C@@H](N)CCC(=O)O)[C@@H](C)O)[C@@H](C)CC)[C@@H](C)CC)C(=O)N[C@@H](CCCCNC(=O)CCCCCCCCCCCCCCC(=O)O)C(=O)N[C@@H](CCC(N)=O)C(=O)N[C@@H](CCC(N)=O)C(=O)N[C@@H](CCC(=O)O)C(=O)N[C@@H](Cc1ccccc1)C(=O)N[C@H](C(=O)N[C@@H](CCC(=O)O)C(=O)N[C@@H](Cc1c[nH]c2ccccc12)C(=O)N[C@@H](CC(C)C)C(=O)N[C@@H](CC(C)C)C(=O)N[C@@H](C)C(=O)N[C@@H](CCC(N)=O)C(=O)N[C@@H](CCCCN)C(=O)N1CCC[C@H]1C(=O)N[C@@H](CO)C(=O)N[C@@H](CO)C(=O)NCC(=O)N[C@@H](C)C(=O)N1CCC[C@H]1C(=O)N1CCC[C@H]1C(=O)N1CCC[C@H]1C(=O)N[C@@H](CO)C(=O)O)C(C)C

Molecular target: T1, human GIP receptor
Assay: cell-based or functional assay

Row | Binder | cAMP antagonism % inhib (CisBio assay) [%] | cAMP antagonism nM (IC50, CisBio assay) [nM] | cAMP antagonism pIC50 (CisBio assay)
1 | B1 | 100 | 1.08 | 9
2 | B2 | 100 | 0.473 | 9.3
3 | B3 | 98 | 3.16 | 8.5
4 | B4 | 89 | 0.266 | 9.6
5 | B5 | 91 | 0.794 | 9.1
6 | B6 | 86 | 0.736 | 9.1
7 | B7 | 92 | 0.944 | 9
8 | B8 | 88 | 0.15 | 9.8
9 | B9 | 94 | 0.136 | 9.9

— patent US20230416330A1, “Optimized GIP Peptide Analogues” (Antag Therapeutics ApS, priority 2019, published 2023)
